Patent publication US20100322931A1 (AbbVie / Abbott, published 2010)

Molecular target: T1, VEGF (R&D systems, Minneapolis, Minn.) (UniProt P15692-4 27-191, limits assumed)
T1 construct: Soluble analyte in the BIAcore assay; also called vascular endothelial growth factor; VEGFA
Experiment: SPR (BIAcore 2000/3000), antibody captured on anti-human Fc, VEGF as analyte, 1:1 Langmuir fit; variant corresponding to SEQ ID NO:82, the tightest of the variants
Procedure: RL was kept low to minimize avidity due to the dimeric nature of VEGF. No capture of the antibody was made on the reference surface to serve as a negative control. Subsequently, VEGF was injected to all flow cells at a flow rate of 50 μL/min for two minutes to monitor association followed by a 25-minute flow of HBS-P running buffer (10 mM HEPES, 150 mM sodium chloride, 0.005% P-20, pH 7.4) to monitor the dissociation phase. At each cycle, VEGF, in 6 different concentrations of VEGF ranging between 0 nM and 512 nM and at four-fold increments, was injected over the surface. […] Binding data were fit to the 1:1 Langmuir model to extract binding constants from the BIAevaluate software. Double referencing was applied in each analysis to eliminate background responses from the reference surface and buffer only control. All the binding kinetics data were analyzed at least three separate determinations.

T1 sequence (P15692 other isoform, or with tags, fused parts or gaps limits assumed): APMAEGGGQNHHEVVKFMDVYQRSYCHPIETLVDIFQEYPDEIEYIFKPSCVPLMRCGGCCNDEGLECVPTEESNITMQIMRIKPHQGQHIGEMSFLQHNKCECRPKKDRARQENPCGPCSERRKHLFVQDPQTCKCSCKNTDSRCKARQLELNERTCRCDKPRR

Kd: 80 pM
B1: bevacizumab variant corresponding to SEQ ID NO:82 (antibody, V domains shown)
VH: EVQLVESGGGLVQPGGSLRLSCAASGYTFTFYGMNWVRQAPGKGLEWVGWINTYTGEPTYAADFKRRFTFSLDTSKSTAYLQMNSLRAEDTAVYYCAKYPDYDGGSHWYFDVWGQGTLVTVSS
VL: DIQMTQSPSSLSASVGDRVTITCSASQDISNYLNWYQQKPGKAPKVLIYFTSSLHSGVPSRFSGSGSGTDFTLTISSLQPEDFATYYCQQYSTVPWTFGQGTKVEIKR
notes: Variant VH cloned with the unmodified VL into a human IgG1-containing plasmid and expressed in 293T/17 cells
